According to patent publication US8440804B2, “Polypeptides having modulatory effects on cells” (Ecole Normale Superieure de Lyon, priority 2006, dated 2013):

Columns and labels:
NS5A-TP2 [1] = target: T1, NS5A-TP2 (Homo sapiens, UniProt Q7Z4H3); assay: Further yeast two-hybrid binding assays (higher sensitivity)
T1 construct: expressed in transfected cells; host or cells: yeast
T1 sequence (Q7Z4H3 1-204): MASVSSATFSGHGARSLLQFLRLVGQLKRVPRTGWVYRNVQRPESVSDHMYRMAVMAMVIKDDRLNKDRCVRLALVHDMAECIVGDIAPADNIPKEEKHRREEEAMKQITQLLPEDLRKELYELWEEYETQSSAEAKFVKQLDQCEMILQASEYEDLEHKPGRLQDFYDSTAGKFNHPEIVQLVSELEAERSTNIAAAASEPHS
Source text: FIG. 14. Specificity of aptamers according to the invention for CNA and NS5A-TP2 Interaction matrix between peptide aptamers R5G42, C2, C7, C8, N9, R5G44 and R5G52 with CNA constructs CNA1-CNA8 (A) CNA9-11 (B) and NS5A-TP2 (C). An interaction phenotype between CNA3/CNA 11, which both contain the Calmodulin binding domain (CaM) and the auto-inhibitory domain (Al) but not the CNB binding domain (CNB) and the aptamers R5G42, C2, C7, C8 and N9 is observed in a two-hybrid assay. R5G44 and R5G52 aptamers recognize neither the CNA fragments, nor NS5A-TP2. Only aptamers R5G42 and N9 recognize NS5A-TP2.
The inventors proceeded to further yeast two-hybrid binding assays between peptide aptamers R5G42 (SEQ ID 22), C2 (SEQ ID 23), C7 (SEQ ID 27), C8 (SEQ ID 28), N9 (SEQ ID 33), R5G44 and R5G52 with CNA constructs CNA1-CNA8 (FIG. 14A), CNA9-CNA11 (FIG. 14B) and NS5A-TP2 (SEQ ID 15) (FIG. 14C). The sensitivity of this yeast two-hybrid assay was higher than in the experiment reported above.

[2] = test system: Raw1 cells (osteoclasts precursors); assay: Raw cell differentiation assay (osteoclast differentiation); format: cell-based; settings: 4 days post-transfection, absence of RANKL
Source text: Trx, CNA* and Peptide aptamers R5G42, C2, C7, C8 and N9 were transfected into RAW1 cells and left for four days in absence of the normal differentiation factor RANKL. CNA* is activated calcineurin A which elicits a robust differentiation response.
The inventors assessed the ability of some CNA-specific peptide aptamers to promote osteoclast differentiation via the activation of CNA. […] The differentiation state was then observed 4 days post-transfection.
Raw1 cells were transfected with the following plasmids: pCI-HA-Trx (negative control), pCI-HA CNA* (positive control for differentiation activation), pCI-HA R5G42, pCI-HA R5G42-C2, pCI-HA R5G42-C7, pCI-HA R5G42-C8 and pCI-HA R5G42-N9. The sequence of CNA* is the same as that of CNA8 (see FIG. 17, SEQ ID 42). The sequences of the R5G42 (SEQ ID 22), C2 (SEQ ID 23), C7 (SEQ ID 27), C8 (SEQ ID 28) and N9 (SEQ ID 33) aptamers is shown on FIG. 8.
One day before the transfection, Raw I cells were plated in 6-well dishes at 50 cell/mm^2. Transfection was performed with FuGene 6 Reagent (Roche) using 2 μg of each plasmid and following supplier recommendations.
8 h after transfection D-MEM was changed with α-MEM. In the control dishes α-MEM+50 ng/ml RANKL was added. After 2 days, medium was changed with a fresh medium. The differentiation state was then observed 4 days post-transfection.

[3] = target: T2, CNA beta C-terminal fragment (Homo sapiens, UniProt P16298); assay: Yeast two-hybrid assays of R5G42 mutants; format: binding; settings: plasmids pSH18-34, pJK103, pRB18-40
T2 construct: expressed in transfected cells; host or cells: yeast (MB210a transformed with library plasmid, mated with bait strain)
Procedure: (§1) The capacity of R5G42 mutants having a one amino acid change as compared to R5G42 to bind CNA beta and gamma C-Terminal fragments (FIG. 3b) and NS5A-TP2 was tested in yeast two-hybrid assays. CNA beta and gamma C-Terminal fragments and NS5A-TP2 were cloned in three different vectors (pSH18-34, pJK103 and pRB18-40). These three plasmids differ from each other in the level of sensitivity of their promoter, pSH18-34 having the highest sensitivity and pRB18-40 having the lowest.
(§2) The inventors explored the ability of R5G42 mutants having a one amino acid change as compared to R5G42, to bind to CNA beta and gamma C-Terminal fragments (FIG. 3b) and to NS5A-TP2. To this end, they proceeded to yeast-two hybrid assays as in example 3. CNA beta and gamma C-Terminal fragments (FIG. 3b) and NS5A-TP2 were cloned in three different plasmids (pSH18-34, pJK103 and pRB18-40), which differed from each other in the level of sensitivity of their promoter to the bait/prey complex formation, pSH18-34 having the highest sensitivity and pRB18-40 having the lowest.

NS5A-TP2 [4] = target: T1, NS5A-TP2; assay: Yeast two-hybrid assays of R5G42 mutants; format: binding; settings: plasmids pSH18-34, pJK103, pRB18-40
Procedure: as §1, §2

[5] = test system: CNA gamma C-terminal fragment; assay: Yeast two-hybrid assays of R5G42 mutants; format: binding, human; settings: plasmids pSH18-34, pJK103, pRB18-40
Procedure: as §1, §2

Chain of CNA gamma C-terminal fragment (P48454 386-512 limits assumed): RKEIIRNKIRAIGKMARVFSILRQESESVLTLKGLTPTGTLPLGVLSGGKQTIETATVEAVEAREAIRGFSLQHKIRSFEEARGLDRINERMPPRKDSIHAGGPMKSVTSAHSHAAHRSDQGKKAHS

recognition of NS5A-TP2 (NS5A-TP2 [1]): recognized NS5A-TP2 | yeast two-hybrid interaction (NS5A-TP2 [4]): shown to interact with NS5A-TP2
B1: N9: R5G42 mutant having a one amino acid change (SEQ ID 33) (protein)
chain: MVKQIESKTAFQEALDAAGDKLVVVDFSAAWCGPSAVTFAVCALGPCKMIKPFFHSLSEKYSNVIFLEVDVDDCQDVASECEVKCMPTFQFFKKGQKVGEFSGANKEKLEATINELV
modifications: Aptamer R5G42 mutant N9
osteoclast differentiation [2]: no osteoclasts fully differentiated were detectable | yeast two-hybrid interaction [3]: not with the CNA beta and gamma C-terminal fragments | yeast two-hybrid interaction [5]: not with the CNA beta and gamma C-terminal fragments
